Article PMC8115264, “Mitofusin-2 stabilizes adherens junctions and suppresses endothelial inflammation via modulation of β-catenin signaling” (Nature Communications, 2021)

Target: T1, GFP-Mfn2 (UniProt O95140 1-757)
T1 construct: The construct was generated in the authors' laboratory; also called lentiviral GFP-Mfn2; GFP-tagged Mfn2; source: HLMVECs, lentiviral expression (pWPXL), in lysate
T1 sequence (looked up): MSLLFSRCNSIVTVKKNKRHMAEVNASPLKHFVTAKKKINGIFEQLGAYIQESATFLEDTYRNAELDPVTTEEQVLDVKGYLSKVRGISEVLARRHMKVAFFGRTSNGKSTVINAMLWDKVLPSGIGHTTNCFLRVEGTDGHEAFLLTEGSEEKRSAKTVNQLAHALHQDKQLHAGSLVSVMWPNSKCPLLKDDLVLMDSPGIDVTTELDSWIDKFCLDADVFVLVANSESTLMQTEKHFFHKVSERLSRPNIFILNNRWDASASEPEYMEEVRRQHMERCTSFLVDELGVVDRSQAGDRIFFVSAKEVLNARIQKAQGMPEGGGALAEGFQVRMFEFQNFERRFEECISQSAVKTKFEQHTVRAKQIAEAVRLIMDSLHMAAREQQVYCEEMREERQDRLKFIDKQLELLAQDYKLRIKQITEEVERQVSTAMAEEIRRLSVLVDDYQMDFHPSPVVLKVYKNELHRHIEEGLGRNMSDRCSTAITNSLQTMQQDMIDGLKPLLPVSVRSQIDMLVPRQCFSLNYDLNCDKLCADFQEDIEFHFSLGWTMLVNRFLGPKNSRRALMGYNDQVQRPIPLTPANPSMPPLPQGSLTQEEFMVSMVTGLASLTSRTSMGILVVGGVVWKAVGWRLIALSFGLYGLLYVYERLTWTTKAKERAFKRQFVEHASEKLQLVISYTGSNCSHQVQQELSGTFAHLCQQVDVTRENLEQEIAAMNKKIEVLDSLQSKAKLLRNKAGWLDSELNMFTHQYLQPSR
Assay: co-IP; HLMVECs expressing GFP or GFP-Mfn2, with or without TNFα (10 ng/mL) for 6 h; GFP-Mfn2 immunoprecipitated with GFP-trap magnetic agarose, Western blot for β-catenin and Mfn2
Conditions: partners not purified

B1: β-catenin (natural protein, human (endogenous in HLMVECs), UniProt P35222 1-781, looked up)
chain: MATQADLMELDMAMEPDRKAAVSHWQQQSYLDSGIHSGATTTAPSLSGKGNPEEEDVDTSQVLYEWEQGFSQSFTQEQVADIDGQYAMTRAQRVRAAMFPETLDEGMQIPSTQFDAAHPTNVQRLAEPSQMLKHAVVNLINYQDDAELATRAIPELTKLLNDEDQVVVNKAAVMVHQLSKKEASRHAIMRSPQMVSAIVRTMQNTNDVETARCTAGTLHNLSHHREGLLAIFKSGGIPALVKMLGSPVDSVLFYAITTLHNLLLHQEGAKMAVRLAGGLQKMVALLNKTNVKFLAITTDCLQILAYGNQESKLIILASGGPQALVNIMRTYTYEKLLWTTSRVLKVLSVCSSNKPAIVEAGGMQALGLHLTDPSQRLVQNCLWTLRNLSDAATKQEGMEGLLGTLVQLLGSDDINVVTCAAGILSNLTCNNYKNKMMVCQVGGIEALVRTVLRAGDREDITEPAICALRHLTSRHQEAEMAQNAVRLHYGLPVVVKLLHPPSHWPLIKATVGLIRNLALCPANHAPLREQGAIPRLVQLLVRAHQDTQRRTSMGGTQQQFVEGVRMEEIVEGCTGALHILARDVHNRIVIRGLNTIPLFVQLLYSPIENIQRVAAGVLCELAQDKEAAEAIEAEGATAPLTELLHSRNEGVATYAAAVLFRMSEDKPQDYKKRLSVELTSSLFRTEPMAWNETADLGLDIGAQGEPLGYRQDDPSYRSFHSGGYGQDALGMDPMMEHEMGGHHPGADYPVDGLPDLGHAQDLMDGLPPGDSNQLAWFDTDL
notes: β-catenin, endogenous in human lung microvascular endothelial cells; also called beta-catenin; source: endogenous, HLMVEC lysate or fixed HLMVECs
  fold increase of the interaction after TNFα against basal: 6 fold
